Experimental data from US20260297183 (published 2026).
Where a chain is given by its changes, count along the chain named.

Key:
huZIP12-ECD-GST [1] = target: T1, huZIP12-ECD-GST (human, UniProt Q504Y0); assay: SPR, extended dissociation re-test
huZIP12-ECD-GST [2] = target: T1, huZIP12-ECD-GST; assay: SPR

B1: H3_W99H_VL-par (antibody, V domains shown)
VH: QVQLVESGGGVVQPGRSLRLSCAASGFTFSDYGMHWVRQAPGKGLEWVAYISSGGTTIYYADTVKGRFTISRDNSKNTLYLQMNSLRAEDTAVYYCARHTNLYAMDYWGQGTTVTVSS
VL: DIVLTQSPDSLAVSLGERATINCRASKSVSTSGYSYMHWYQQKPGQPPKFLIYLASNLESGVPDRFSGSGSGTDFTLTISSLQAEDVAVYYCQHSREVPYTFGGGTKVEIKR
B1 showed a Kd (huZIP12-ECD-GST [1]) of about 0.3 nM and a Kd (huZIP12-ECD-GST [2]) of about 0.5 nM.

B2: H3_W99H_L2 (antibody, V domains shown)
VH: B1 VH
VL: B1 VL with L58K
B2 was tested, and the Kd (huZIP12-ECD-GST [1]) was about 0.3 nM and the Kd (huZIP12-ECD-GST [2]) was about 0.5 nM.

B3: 51B12 parent (51B12_VH_VL-par) (antibody, V domains shown)
VH: B1 VH with H99W
VL: B1 VL
Work on B3 yielded a Kd (huZIP12-ECD-GST [1]) of 1.1 nM.

B4: H3_W99H_L1 (51B12_W99H_L1) (antibody, V domains shown)
VH: B1 VH
VL: B1 VL with S32Q
Binder B4 has a Kd (huZIP12-ECD-GST [1]) of about 0.3 nM.
